Results: patent publication US20220177587A1, “METHODS AND USES OF VARIANT CD80 FUSION PROTEINS AND RELATED CONSTRUCTS” (Alpine Immune Sciences, Inc., priority 2018, published 2022)
Where two headings read alike, the source gives them in different places.

Experiments:
PD-L1 (human) [1] = target: PD-L1 (human) (UniProt Q9NZQ7)
CD28 (human) [2] = target: CD28 (human) (UniProt P10747)
PD-L1 (human) [3] = target: PD-L1 (human) (UniProt Q9NZQ7); remark: listed apart in the source
CD28 (human) [4] = target: CD28 (human) (UniProt P10747); remark: listed apart in the source

Chain of PD-L1 (human) (Q9NZQ7 19-290): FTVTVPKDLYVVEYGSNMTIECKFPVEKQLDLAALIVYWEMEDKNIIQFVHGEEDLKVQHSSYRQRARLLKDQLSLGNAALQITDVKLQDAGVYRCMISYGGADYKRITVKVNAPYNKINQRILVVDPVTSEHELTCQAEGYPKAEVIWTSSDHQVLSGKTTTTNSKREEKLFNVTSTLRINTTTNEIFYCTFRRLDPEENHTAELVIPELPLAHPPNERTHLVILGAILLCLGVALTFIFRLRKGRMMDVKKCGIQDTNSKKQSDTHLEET

| Jurkat/IL2 reporter RLU at 50 nM, K562/OKT3/PD-L1 aAPC (PD-L1 (human) [1]) [RLU] | Jurkat/IL2 reporter RLU at 50 nM, K562/OKT3/PD-L1 aAPC (CD28 (human) [2]) [RLU] | Jurkat/IL2 reporter RLU at 50 nM, K562/OKT3/PD-L1 aAPC (PD-L1 (human) [3]) [RLU] | Jurkat/IL2 reporter RLU at 50 nM, K562/OKT3/PD-L1 aAPC (CD28 (human) [4]) [RLU] | Substance |
| --- | --- | --- | --- | --- |
| 1190 | 1190 | – | – | CD80 E35D/A71G IgV-Fc (inert) (Fc fusion) |
| 315 | 315 | – | – | CD80 E35D/L85Q/K93T/E95V/L97Q IgV-Fc (inert) (Fc fusion) |
| 1320 | 1320 | – | – | CD80 E35D/M38T/D46E/M47V/N48S IgV-Fc (inert) (Fc fusion) |
| 680 | 680 | – | – | CD80 E35D/M38T/M43V/M47V/N48R/L85Q IgV-Fc (inert) (Fc fusion) |
| 1090 | 1090 | – | – | CD80 E35D/M43I/M47V/K89N IgV-Fc (inert) (Fc fusion) |
| 1580 | 1580 | – | – | CD80 E35D/M47I/Y87Q/K89E IgV-Fc (inert) (Fc fusion) |
| 1320 | 1320 | – | – | CD80 E35D/M47L/A71G/L85M/F92Y IgV-Fc (inert) (Fc fusion) |
| 1220 | 1220 | – | – | CD80 E35D/M47V/A71G/E88D IgV-Fc (inert) (Fc fusion) |
| 1440 | 1440 | – | – | CD80 E35D/M47V/N48K/V68M/K89N IgV-Fc (inert) (Fc fusion) |
| 897 | 897 | – | – | CD80 E35D/M47V/N48T/L85Q IgV-Fc (inert) (Fc fusion) |
| 1670 | 1670 | – | – | CD80 E35D/T41S/M43V/M47I/L70M/A71G IgV-Fc (inert) (Fc fusion) |
| 594 | 594 | – | – | CD80 E35D/T41S/M47V/L97Q IgV-Fc (inert) (Fc fusion) |
| 1230 | 1230 | – | – | CD80 H18Y/E35D/N48K IgV-Fc (inert) (Fc fusion) |
| 1500 | 1500 | – | – | CD80 I30V/E35D/M47V/A71G/A91V IgV-Fc (inert) (Fc fusion) |
| 1310 | 1310 | – | – | CD80 Q27H/E35D/M47I/L85Q/D90G IgV-Fc (inert) (Fc fusion) |
| 168 | 168 | – | – | CD80 Q33L/E35D/M43I/Y53F/T62S/L85Q IgV-Fc (inert) (Fc fusion) |

| Jurkat/IL2 reporter RLU at 50 nM, K562/OKT3/PD-L1 aAPC (PD-L1 (human) [1]) [RLU] | Jurkat/IL2 reporter RLU at 50 nM, K562/OKT3/PD-L1 aAPC (CD28 (human) [2]) [RLU] | Jurkat/IL2 reporter RLU at 50 nM, K562/OKT3/PD-L1 aAPC (PD-L1 (human) [3]) [RLU] | Jurkat/IL2 reporter RLU at 50 nM, K562/OKT3/PD-L1 aAPC (CD28 (human) [4]) [RLU] | Substance |
| --- | --- | --- | --- | --- |
| – | – | 432 | 432 | CD80 Q33L/E35D/M47I/L85Q IgV-Fc (inert) (Fc fusion) |
| 213 | 213 | – | – | CD80 Q33L/E35D/M47I/N48D/A71G IgV-Fc (inert) (Fc fusion) |
| – | – | 463 | 463 | CD80 Q33L/E35D/M47I/T62N/L85Q IgV-Fc (inert) (Fc fusion) |
| – | – | 394 | 394 | CD80 Q33L/E35D/M47L/A71G/F92S IgV-Fc (inert) (Fc fusion) |
| – | – | 572 | 572 | CD80 Q33L/E35D/M47L/V68M/L85Q/E88D IgV-Fc (inert) (Fc fusion) |
| – | – | 533 | 533 | CD80 Q33L/E35D/T41S/M43I IgV-Fc (inert) (Fc fusion) |
| 215 | 215 | – | – | CD80 Q33R/E35D/M47V/N48K/L85M/F92L IgV-Fc (inert) (Fc fusion) |
| 227 | 227 | – | – | CD80 R29H/E35D/M43V/M47I/I49V IgV-Fc (inert) (Fc fusion) |
| – | – | 468 | 468 | CD80 S15P/Q33L/E35D/M47L/L85Q IgV-Fc (inert) (Fc fusion) |
| 580 | 580 | – | – | CD80 T28Y/Q33H/E35D/D46V/M47I/A71G IgV-Fc (inert) (Fc fusion) |
| – | – | 390 | 390 | CD80 V22A/E23D/Q33L/E35D/M47V IgV-Fc (inert) (Fc fusion) |
| – | – | 538 | 538 | CD80 V22A/E35D/V68E/A71D IgV-Fc (inert) (Fc fusion) |
| 1140 | 1140 | – | – | CD80 V22D/E35D/M47L/L85Q IgV-Fc (inert) (Fc fusion) |
| – | – | 496 | 496 | CD80 Y31S/E35D/M47L/T79L/E88G IgV-Fc (inert) (Fc fusion) |
| – | 1790 | – | 3040 | WT CD80-ECD-Fc (effector) (Fc fusion) |

Further lines, the substance ahead of its results:

| Substance | Jurkat/IL2 reporter RLU at 50 nM, K562/OKT3/PD-L1 aAPC (PD-L1 (human) [1]) [RLU] | Jurkat/IL2 reporter RLU at 50 nM, K562/OKT3/PD-L1 aAPC (CD28 (human) [2]) [RLU] | Jurkat/IL2 reporter RLU at 50 nM, K562/OKT3/PD-L1 aAPC (PD-L1 (human) [3]) [RLU] | Jurkat/IL2 reporter RLU at 50 nM, K562/OKT3/PD-L1 aAPC (CD28 (human) [4]) [RLU] |
| --- | --- | --- | --- | --- |
| CD80 A26E/E35D/M47L/A71G IgV-Fc (inert) (Fc fusion) | 1750 | 1750 | – | – |
| CD80 E35D/A71D/L72V/R73H/E81K IgV-Fc (inert) (Fc fusion) | 282 | 282 | – | – |
| CD80 E35D/D46E/M47V/A71D IgV-Fc (inert) (Fc fusion) | 683 | 683 | – | – |
| CD80 E35D/D46E/M47V/A71D/D90G IgV-Fc (inert) (Fc fusion) | 1040 | 1040 | – | – |
| CD80 E35D/D46E/M47V/N63D/L85Q IgV-Fc (inert) (Fc fusion) | 1380 | 1380 | – | – |
| CD80 E35D/D46V/M47L/V68M/L85Q/E88D IgV-Fc (inert) (Fc fusion) | 1460 | 1460 | – | – |
| CD80 E35D/K37E/M47V/N48D/L85Q/D90N IgV-Fc (inert) (Fc fusion) | 851 | 851 | – | – |
| CD80 E35D/M47I/L85Q/D90G IgV-Fc (inert) (Fc fusion) | 1440 | 1440 | – | – |
| CD80 E35D/M47I/T62S/L85Q IgV-Fc (inert) (Fc fusion) | 1570 | 1570 | – | – |
| CD80 E35D/M47V/A71G IgV-Fc (inert) (Fc fusion) | 1190 | 1190 | – | – |
| CD80 E35D/T41S/M43I/A71G/D90G IgV-Fc (inert) (Fc fusion) | 1120 | 1120 | – | – |
| CD80 E35D/T41S/M43I/M47L/A71G IgV-Fc (inert) (Fc fusion) | 1540 | 1540 | – | – |
| CD80 E35D/T41S/M43I/M47V/A71G IgV-Fc (inert) (Fc fusion) | 1270 | 1270 | – | – |
| CD80 E35D/T41S/M47V/A71G/K89N IgV-Fc (inert) (Fc fusion) | 1020 | 1020 | – | – |
| CD80 E35D/Y53H/A71G/D90G/L97R IgV-Fc (inert) (Fc fusion) | 1720 | 1720 | – | – |
| CD80 H18Y/A26E/E35D/M47L/L85Q/D90G IgV-Fc (inert) (Fc fusion) | 1510 | 1510 | – | – |
| CD80 H18Y/V22A/E35D/M47V/T62S/A71G IgV-Fc (inert) (Fc fusion) | 1380 | 1380 | – | – |
| CD80 Q27H/E35D/D46V/M47L/A71G IgV-Fc (inert) (Fc fusion) | 978 | 978 | – | – |
| CD80 Q33L/E35D/M47V IgV-Fc (inert) (Fc fusion) | – | – | 393 | 393 |
| CD80 Q33L/E35D/M47V/L85Q IgV-Fc (inert) (Fc fusion) | – | – | 556 | 556 |
| CD80 Q33L/E35D/M47V/T79A IgV-Fc (inert) (Fc fusion) | – | – | 527 | 527 |
| CD80 Q33L/E35D/N48K/L85Q/L97Q IgV-Fc (inert) (Fc fusion) | – | – | 358 | 358 |
| CD80 Q33L/E35D/T41S/M47V IgV-Fc (inert) (Fc fusion) | – | – | 481 | 481 |
| CD80 Q33R/E35D/D46E/M47I IgV-Fc (inert) (Fc fusion) | – | – | 522 | 522 |
| CD80 Q33R/E35D/K37E/M47V/L85Q IgV-Fc (inert) (Fc fusion) | – | – | 464 | 464 |
| CD80 V22A/E35D/M47I/Y87N IgV-Fc (inert) (Fc fusion) | 1390 | 1390 | – | – |
| CD80 V22A/R29H/E35D/D46E/M47I IgV-Fc (inert) (Fc fusion) | – | – | 3310 | 3310 |
| CD80 V22D/E35D/M47L/L70M/L97Q IgV-Fc (inert) (Fc fusion) | 1540 | 1540 | – | – |
